# Patent publication US20210095004
# T1: Aca cand27
# T1 chain: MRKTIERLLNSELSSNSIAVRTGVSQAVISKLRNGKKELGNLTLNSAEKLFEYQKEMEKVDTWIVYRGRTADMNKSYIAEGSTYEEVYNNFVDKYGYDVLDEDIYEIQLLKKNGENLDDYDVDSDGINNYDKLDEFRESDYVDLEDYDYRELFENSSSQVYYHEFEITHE
# T2: truncated Aca cand9
# T2 chain: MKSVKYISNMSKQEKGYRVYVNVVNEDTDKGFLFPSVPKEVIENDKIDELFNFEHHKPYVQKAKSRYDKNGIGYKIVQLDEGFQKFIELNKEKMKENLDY
# T3: Aca cand9
# T3 chain: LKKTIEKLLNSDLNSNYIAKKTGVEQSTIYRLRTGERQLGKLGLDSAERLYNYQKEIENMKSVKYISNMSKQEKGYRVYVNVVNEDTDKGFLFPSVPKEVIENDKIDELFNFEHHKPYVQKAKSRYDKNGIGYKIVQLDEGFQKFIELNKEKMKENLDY
# T4: truncated Aca cand27
# T4 chain: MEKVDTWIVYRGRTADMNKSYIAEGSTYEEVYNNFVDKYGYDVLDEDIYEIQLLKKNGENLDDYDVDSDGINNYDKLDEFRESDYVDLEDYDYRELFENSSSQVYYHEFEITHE
# B1: Staphylococcus aureus Cas9 (protein)
# chain: MKRNYILGLDIGITSVGYGIIDYETRDVIDAGVRLFKEANVENNEGRRSKRGARRLKRRRRHRIQRVKKLLFDYNLLTDHSELSGINPYEARVKGLSQKLSEEEFSAALLHLAKRRGVHNVNEVEEDTGNELSTKEQISRNSKALEEKYVAELQLERLKKDGEVRGSINRFKTSDYVKEAKQLLKVQKAYHQLDQSFIDTYIDLLETRRTYYEGPGEGSPFGWKDIKEWYEMLMGHCTYFPEELRSVKYAYNADLYNALNDLNNLVITRDENEKLEYYEKFQIIENVFKQKKKPTLKQIAKEILVNEEDIKGYRVTSTGKPEFTNLKVYHDIKDITARKEIIENAELLDQIAKILTIYQSSEDIQEELTNLNSELTQEEIEQISNLKGYTGTHNLSLKAINLILDELWHTNDNQIAIFNRLKLVPKKVDLSQQKEIPTTLVDDFILSPVVKRSFIQSIKVINAIIKKYGLPNDIIIELAREKNSKDAQKMINEMQKRNRQTNERIEEIIRTTGKENAKYLIEKIKLHDMQEGKCLYSLEAIPLEDLLNNPFNYEVDHIIPRSVSFDNSFNNKVLVKQEENSKKGNRTPFQYLSSSDSKISYETFKKHILNLAKGKGRISKTKKEYLLEERDINRFSVQKDFINRNLVDTRYATRGLMNLLRSYFRVNNLDVKVKSINGGFTSFLRRKWKFKKERNKGYKHHAEDALIIANADFIFKEWKKLDKAKKVMENQMFEEKQAESMPEIETEQEYKEIFITPHQIKHIKDFKDYKYSHRVDKKPNRELINDTLYSTRKDDKGNTLIVNNLNGLYDKDNDKLKKLINKSPEKLLMYHHDPQTYQKLKLIMEQYGDEKNPLYKYYEETGNYLTKYSKKDNGPVIKKIKYYGNKLNAHLDITDDYPNSRNKVVKLSLKPYRFDVYLDNGVYKFVTVKNLDVIKKENYYEVNSKCYEEAKKLKKISNQAEFIASFYNNDLIKINGELYRVIGVNNDLLNRIEVNMIDITYREYLENMNDKRPPRIIKTIASKTQSIKKYSTDILGNLYEVKSKKHPQIIKKG
# Assays:
# Aca cand27 = target: T1, Aca cand27
# truncated Aca cand9 = target: T2, truncated Aca cand9
# Aca cand9 = target: T3, Aca cand9
# truncated Aca cand27 = target: T4, truncated Aca cand27
protein,measurement,setting,value
B1,SauCas9-mediated cleavage of target DNA in vitro (FIG. 1),Aca cand27,inhibited SauCas9-mediated cleavage of target DNA at Acr:SauCas9 molar ratios of 10:1 and 20:1
same,SauCas9/guide RNA-mediated cleavage of target DNA in vitro (FIG. 2B),truncated Aca cand9,"inhibited SauCas9/guide RNA-mediated cleavage of target DNA at truncated Acr:SauCas9 molar ratios of 5:1, 10:1, and 20:1"
same,SauCas9-mediated cleavage of target DNA in vitro (FIG. 1),Aca cand9,inhibited SauCas9-mediated cleavage of target DNA at Acr:SauCas9 molar ratios of 10:1 and 20:1
same,SauCas9/guide RNA-mediated cleavage of target DNA in vitro (FIG. 2C),truncated Aca cand27,"inhibited SauCas9/guide RNA-mediated cleavage of target DNA at truncated Acr:SauCas9 molar ratios of 5:1, 10:1, and 20:1"
